From the supplement of paper PMC9112550, “Optimization of the antimicrobial peptide Bac7 by deep mutational scanning” (BMC Biology, 2022)

Tested on: Escherichia coli TOP10
Test: shrunken log2 fold change of peptide-encoding DNA abundance (4.5 h post-induction vs induction); higher = less antimicrobial activity (less host growth inhibition)
Details: time post-induction: 4.5 h; library: site-saturation at positions 5, 18, 19, 20
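Note: peptides expressed intracellularly from a pBAD plasmid library in pooled LB shake-flask culture, induced with 0.3% L-arabinose, DNA abundance read by NGS, three biological replicates, DESeq2 with apeglm shrinkage.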

Sequence: RRIRQRPPRLPRPRPRPQPKPRP
- shrunken log2 fold change: 0.0658

Sequence: RRIRCRPPRLPRPRPRPCNWPRP
- shrunken log2 fold change: -0.141

Sequence: RRIRRRPPRLPRPRPRPYQQPRP
- shrunken log2 fold change: -0.000903

Sequence: RRIRHRPPRLPRPRPRPSIQPRP
- shrunken log2 fold change: -0.344

Sequence: RRIRTRPPRLPRPRPRPFWDPRP
- shrunken log2 fold change: 0.126

Sequence: RRIRERPPRLPRPRPRPCMHPRP
- shrunken log2 fold change: -0.0148

Sequence: RRIRRRPPRLPRPRPRPMFQPRP
- shrunken log2 fold change: 0.155

Sequence: RRIRPRPPRLPRPRPRPGDGPRP
- shrunken log2 fold change: 0.979

Sequence: RRIRPRPPRLPRPRPRPIQKPRP
- shrunken log2 fold change: 0.115

Sequence: RRIRRRPPRLPRPRPRPVYTPRP
- shrunken log2 fold change: 0.0292

Sequence: RRIRGRPPRLPRPRPRPPIFPRP
- shrunken log2 fold change: 0.35

Sequence: RRIRWRPPRLPRPRPRPMHRPRP
- shrunken log2 fold change: -0.0497

Sequence: RRIRMRPPRLPRPRPRPRGRPRP
- shrunken log2 fold change: 1.2

Sequence: RRIRRRPPRLPRPRPRPALFPRP
- shrunken log2 fold change: 0.128

Sequence: RRIRTRPPRLPRPRPRPNPYPRP
- shrunken log2 fold change: -0.121

Sequence: RRIRQRPPRLPRPRPRPIFHPRP
- shrunken log2 fold change: -0.176

Sequence: RRIRCRPPRLPRPRPRPHINPRP
- shrunken log2 fold change: -0.501

Sequence: RRIRCRPPRLPRPRPRPCATPRP
- shrunken log2 fold change: 0.16

Sequence: RRIRRRPPRLPRPRPRPNHQPRP
- shrunken log2 fold change: -0.0677

Sequence: RRIRVRPPRLPRPRPRPFYPPRP
- shrunken log2 fold change: -0.441

Sequence: RRIRTRPPRLPRPRPRPLAIPRP
- shrunken log2 fold change: 0.00788

Sequence: RRIRARPPRLPRPRPRPGTWPRP
- shrunken log2 fold change: 0.161

Sequence: RRIRIRPPRLPRPRPRPYILPRP
- shrunken log2 fold change: -0.463

Sequence: RRIRCRPPRLPRPRPRPFALPRP
- shrunken log2 fold change: -0.33

Sequence: RRIRPRPPRLPRPRPRPKAEPRP
- shrunken log2 fold change: 0.279

Sequence: RRIRCRPPRLPRPRPRPDSTPRP
- shrunken log2 fold change: -0.235

Sequence: RRIRERPPRLPRPRPRPSKSPRP
- shrunken log2 fold change: -0.688

Sequence: RRIRDRPPRLPRPRPRPIAQPRP
- shrunken log2 fold change: -0.0679

Sequence: RRIRSRPPRLPRPRPRPEEQPRP
- shrunken log2 fold change: 0.64

Sequence: RRIRYRPPRLPRPRPRPADHPRP
- shrunken log2 fold change: -0.0872

Sequence: RRIRSRPPRLPRPRPRPCLDPRP
- shrunken log2 fold change: -0.224

Sequence: RRIRIRPPRLPRPRPRPNCYPRP
- shrunken log2 fold change: -0.923

Sequence: RRIRTRPPRLPRPRPRPSIPPRP
- shrunken log2 fold change: -0.356

Sequence: RRIRKRPPRLPRPRPRPACEPRP
- shrunken log2 fold change: 0.168

Sequence: RRIRIRPPRLPRPRPRPTGNPRP
- shrunken log2 fold change: -0.626

Sequence: RRIRWRPPRLPRPRPRPCTFPRP
- shrunken log2 fold change: -0.72

Sequence: RRIRVRPPRLPRPRPRPNVIPRP
- shrunken log2 fold change: -0.329

Sequence: RRIRQRPPRLPRPRPRPCMAPRP
- shrunken log2 fold change: -0.117

Sequence: RRIRLRPPRLPRPRPRPCDFPRP
- shrunken log2 fold change: 0.092

Sequence: RRIRPRPPRLPRPRPRPCKDPRP
- shrunken log2 fold change: -0.374

Sequence: RRIRARPPRLPRPRPRPKQHPRP
- shrunken log2 fold change: 0.312

Sequence: RRIRIRPPRLPRPRPRPHFEPRP
- shrunken log2 fold change: -0.377

Sequence: RRIRVRPPRLPRPRPRPGTYPRP
- shrunken log2 fold change: -0.166

Sequence: RRIRARPPRLPRPRPRPPDRPRP
- shrunken log2 fold change: 0.853

Sequence: RRIRTRPPRLPRPRPRPTWCPRP
- shrunken log2 fold change: -0.178

Sequence: RRIRYRPPRLPRPRPRPIHAPRP
- shrunken log2 fold change: -1.49

Sequence: RRIRSRPPRLPRPRPRPIVSPRP
- shrunken log2 fold change: 0.0431

Sequence: RRIRCRPPRLPRPRPRPQAHPRP
- shrunken log2 fold change: -0.132

Sequence: RRIRYRPPRLPRPRPRPRGCPRP
- shrunken log2 fold change: -0.286

Sequence: RRIRIRPPRLPRPRPRPTPSPRP
- shrunken log2 fold change: 0.0658

Sequence: RRIRGRPPRLPRPRPRPPDNPRP
- shrunken log2 fold change: 0.795

Sequence: RRIRPRPPRLPRPRPRPFPPPRP
- shrunken log2 fold change: -0.0227

Sequence: RRIRERPPRLPRPRPRPYAYPRP
- shrunken log2 fold change: -0.000687

Sequence: RRIRMRPPRLPRPRPRPSMYPRP
- shrunken log2 fold change: 0.081

Sequence: RRIRCRPPRLPRPRPRPVLVPRP
- shrunken log2 fold change: -0.0168

Sequence: RRIRTRPPRLPRPRPRPQKSPRP
- shrunken log2 fold change: -0.0823

Sequence: RRIRLRPPRLPRPRPRPNKEPRP
- shrunken log2 fold change: 0.0626

Sequence: RRIRFRPPRLPRPRPRPWCFPRP
- shrunken log2 fold change: -0.282

Sequence: RRIRHRPPRLPRPRPRPLLAPRP
- shrunken log2 fold change: 0.299

Sequence: RRIRERPPRLPRPRPRPEAEPRP
- shrunken log2 fold change: 0.315

Sequence: RRIRCRPPRLPRPRPRPIITPRP
- shrunken log2 fold change: -0.892

Sequence: RRIRHRPPRLPRPRPRPHSLPRP
- shrunken log2 fold change: -0.00992

Sequence: RRIRERPPRLPRPRPRPGGFPRP
- shrunken log2 fold change: 0.292

Sequence: RRIRWRPPRLPRPRPRPNHGPRP
- shrunken log2 fold change: -0.16

Sequence: RRIRPRPPRLPRPRPRPDIYPRP
- shrunken log2 fold change: -0.0306

Sequence: RRIRSRPPRLPRPRPRPVKCPRP
- shrunken log2 fold change: -0.0337

Sequence: RRIRQRPPRLPRPRPRPRKYPRP
- shrunken log2 fold change: -0.2

Sequence: RRIRPRPPRLPRPRPRPAKMPRP
- shrunken log2 fold change: 0.0216

Sequence: RRIRERPPRLPRPRPRPPSYPRP
- shrunken log2 fold change: -0.0583

Sequence: RRIRMRPPRLPRPRPRPCSMPRP
- shrunken log2 fold change: -0.0341

Sequence: RRIRHRPPRLPRPRPRPDIAPRP
- shrunken log2 fold change: 0.00497

Sequence: RRIRNRPPRLPRPRPRPHEMPRP
- shrunken log2 fold change: -0.33

Sequence: RRIRCRPPRLPRPRPRPGRVPRP
- shrunken log2 fold change: 0.288

Sequence: RRIRMRPPRLPRPRPRPTWAPRP
- shrunken log2 fold change: 0.192

Sequence: RRIRERPPRLPRPRPRPVKDPRP
- shrunken log2 fold change: -0.189

Sequence: RRIRDRPPRLPRPRPRPEKYPRP
- shrunken log2 fold change: 0.0312

Sequence: RRIRYRPPRLPRPRPRPYIFPRP
- shrunken log2 fold change: -0.322

Sequence: RRIRPRPPRLPRPRPRPQIKPRP
- shrunken log2 fold change: -0.282

Sequence: RRIRGRPPRLPRPRPRPLLTPRP
- shrunken log2 fold change: 2.34

Sequence: RRIRMRPPRLPRPRPRPGCRPRP
- shrunken log2 fold change: 1.22

Sequence: RRIRKRPPRLPRPRPRPFLVPRP
- shrunken log2 fold change: 0.00497

Sequence: RRIRPRPPRLPRPRPRPKFPPRP
- shrunken log2 fold change: 0.119

Sequence: RRIRVRPPRLPRPRPRPRRQPRP
- shrunken log2 fold change: 0.0745

Sequence: RRIRGRPPRLPRPRPRPVWDPRP
- shrunken log2 fold change: 0.593

Sequence: RRIRYRPPRLPRPRPRPAYWPRP
- shrunken log2 fold change: -0.029

Sequence: RRIRGRPPRLPRPRPRPMMHPRP
- shrunken log2 fold change: 0.456

Sequence: RRIRFRPPRLPRPRPRPCILPRP
- shrunken log2 fold change: -0.0567

Sequence: RRIRVRPPRLPRPRPRPNEPPRP
- shrunken log2 fold change: 0.097

Sequence: RRIRYRPPRLPRPRPRPSFDPRP
- shrunken log2 fold change: -1.2

Sequence: RRIRSRPPRLPRPRPRPLRRPRP
- shrunken log2 fold change: 0.404

Sequence: RRIRGRPPRLPRPRPRPECCPRP
- shrunken log2 fold change: 1.52

Sequence: RRIRFRPPRLPRPRPRPHGCPRP
- shrunken log2 fold change: -0.064

Sequence: RRIRARPPRLPRPRPRPSAQPRP
- shrunken log2 fold change: 0.96

Sequence: RRIRKRPPRLPRPRPRPNQLPRP
- shrunken log2 fold change: -0.33

Sequence: RRIRNRPPRLPRPRPRPYQMPRP
- shrunken log2 fold change: -0.246

Sequence: RRIRYRPPRLPRPRPRPHAAPRP
- shrunken log2 fold change: -0.211

Sequence: RRIRARPPRLPRPRPRPKWTPRP
- shrunken log2 fold change: -0.00127

Sequence: RRIRPRPPRLPRPRPRPYEIPRP
- shrunken log2 fold change: -0.0187

Sequence: RRIRKRPPRLPRPRPRPYDYPRP
- shrunken log2 fold change: -0.0386

Sequence: RRIRERPPRLPRPRPRPISYPRP
- shrunken log2 fold change: -0.0746

Sequence: RRIRKRPPRLPRPRPRPGNFPRP
- shrunken log2 fold change: -0.373

Sequence: RRIRQRPPRLPRPRPRPKDLPRP
- shrunken log2 fold change: -0.0616

Sequence: RRIRNRPPRLPRPRPRPSSFPRP
- shrunken log2 fold change: -0.127

Sequence: RRIRPRPPRLPRPRPRPYCAPRP
- shrunken log2 fold change: -0.312

Sequence: RRIRCRPPRLPRPRPRPRANPRP
- shrunken log2 fold change: 0.255

Sequence: RRIRYRPPRLPRPRPRPHLGPRP
- shrunken log2 fold change: 0.0406

Sequence: RRIRYRPPRLPRPRPRPWVPPRP
- shrunken log2 fold change: -0.0218

Sequence: RRIRNRPPRLPRPRPRPRCDPRP
- shrunken log2 fold change: -0.203

Sequence: RRIRMRPPRLPRPRPRPKFTPRP
- shrunken log2 fold change: 0.313

Sequence: RRIRHRPPRLPRPRPRPSGRPRP
- shrunken log2 fold change: 0.0298

Sequence: RRIRLRPPRLPRPRPRPCCSPRP
- shrunken log2 fold change: -0.144

Sequence: RRIRTRPPRLPRPRPRPNLHPRP
- shrunken log2 fold change: -0.725

Sequence: RRIRCRPPRLPRPRPRPGLEPRP
- shrunken log2 fold change: 0.203

Sequence: RRIRHRPPRLPRPRPRPTQWPRP
- shrunken log2 fold change: 0.0126

Sequence: RRIRIRPPRLPRPRPRPTEMPRP
- shrunken log2 fold change: 0.112

Sequence: RRIRFRPPRLPRPRPRPRAIPRP
- shrunken log2 fold change: 0.0543

Sequence: RRIRIRPPRLPRPRPRPASLPRP
- shrunken log2 fold change: -0.0288

Sequence: RRIRKRPPRLPRPRPRPSGHPRP
- shrunken log2 fold change: -0.0496

Sequence: RRIRRRPPRLPRPRPRPWDCPRP
- shrunken log2 fold change: -0.033

Sequence: RRIRLRPPRLPRPRPRPLQRPRP
- shrunken log2 fold change: 0.0926

Sequence: RRIRTRPPRLPRPRPRPYQSPRP
- shrunken log2 fold change: -0.465

Sequence: RRIRCRPPRLPRPRPRPMLNPRP
- shrunken log2 fold change: -0.38

Sequence: RRIRMRPPRLPRPRPRPGEDPRP
- shrunken log2 fold change: 0.118

Sequence: RRIRERPPRLPRPRPRPFQEPRP
- shrunken log2 fold change: -0.0402

Sequence: RRIRKRPPRLPRPRPRPAAFPRP
- shrunken log2 fold change: 0.59

Sequence: RRIRFRPPRLPRPRPRPKAKPRP
- shrunken log2 fold change: -0.016

Sequence: RRIRTRPPRLPRPRPRPNFIPRP
- shrunken log2 fold change: -0.457

Sequence: RRIRARPPRLPRPRPRPCTWPRP
- shrunken log2 fold change: 0.108

Sequence: RRIRNRPPRLPRPRPRPDLLPRP
- shrunken log2 fold change: -0.0183

Sequence: RRIRGRPPRLPRPRPRPRKEPRP
- shrunken log2 fold change: 0.363

Sequence: RRIRWRPPRLPRPRPRPNDTPRP
- shrunken log2 fold change: -0.268

Sequence: RRIRCRPPRLPRPRPRPFWPPRP
- shrunken log2 fold change: 0.161

Sequence: RRIRWRPPRLPRPRPRPGGHPRP
- shrunken log2 fold change: 0.494

Sequence: RRIRKRPPRLPRPRPRPTFRPRP
- shrunken log2 fold change: 0.527

Sequence: RRIRWRPPRLPRPRPRPCYTPRP
- shrunken log2 fold change: -0.382

Sequence: RRIRWRPPRLPRPRPRPYLQPRP
- shrunken log2 fold change: -0.113

Sequence: RRIRNRPPRLPRPRPRPMFMPRP
- shrunken log2 fold change: -0.424

Sequence: RRIRARPPRLPRPRPRPWKKPRP
- shrunken log2 fold change: -0.0663

Sequence: RRIRDRPPRLPRPRPRPWEPPRP
- shrunken log2 fold change: -1.35

Sequence: RRIRQRPPRLPRPRPRPEVEPRP
- shrunken log2 fold change: 0.0391

Sequence: RRIRMRPPRLPRPRPRPMFGPRP
- shrunken log2 fold change: 0.0113

Sequence: RRIRERPPRLPRPRPRPGSRPRP
- shrunken log2 fold change: -0.0607

Sequence: RRIRPRPPRLPRPRPRPGAEPRP
- shrunken log2 fold change: 0.798

Sequence: RRIRLRPPRLPRPRPRPIAKPRP
- shrunken log2 fold change: -0.305

Sequence: RRIRRRPPRLPRPRPRPTLGPRP
- shrunken log2 fold change: 0.138

Sequence: RRIRVRPPRLPRPRPRPGMSPRP
- shrunken log2 fold change: 0.303

Sequence: RRIRFRPPRLPRPRPRPHDYPRP
- shrunken log2 fold change: -0.323

Sequence: RRIRGRPPRLPRPRPRPETAPRP
- shrunken log2 fold change: 1.76

Sequence: RRIRPRPPRLPRPRPRPQWVPRP
- shrunken log2 fold change: 0.0693

Sequence: RRIRVRPPRLPRPRPRPDFMPRP
- shrunken log2 fold change: -0.0875
